In one data set the target is T1, ANXA1 (Homo sapiens, UniProt P04083).
T1 construct: made in house; host or cells: E. coli BL21
T1 sequence (P04083 1-346): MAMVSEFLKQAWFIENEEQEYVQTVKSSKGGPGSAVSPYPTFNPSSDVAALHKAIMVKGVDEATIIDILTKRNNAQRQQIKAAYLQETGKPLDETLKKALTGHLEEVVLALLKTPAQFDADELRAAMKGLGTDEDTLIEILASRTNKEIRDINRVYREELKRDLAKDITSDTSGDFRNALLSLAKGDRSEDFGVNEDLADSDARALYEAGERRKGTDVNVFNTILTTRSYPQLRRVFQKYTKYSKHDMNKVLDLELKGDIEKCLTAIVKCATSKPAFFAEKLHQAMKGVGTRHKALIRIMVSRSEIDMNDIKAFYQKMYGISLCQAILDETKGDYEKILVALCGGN
The experiment in a line: BLI analysis, NICD peptides to immobilized ANXA1. In kind it is binding. The following applies: for Koff: Octet Red96, ANXA1 immobilized on SSA sensor, peptides in SD buffer. As for the experimental part: (§1) AlphaFold2 and ClusPro servers were used to dock NICD and ANXA1.^[ [35] ^] The predictions were tested by GST‐pull down assay, bio‐layer interferometry (BLI) analysis, and chemical cross‐linking coupled with mass spectrometry. Details of these procedures are described in Materials and Methods (Supporting Information).
(§2) For bio‐layer interferometry (BLI) analyses performed by Octet Red96 system (Sartorius), purified NICD protein was immobilized on SA sensor (Sartorius) after labeling with Sulfo-NHS-Biotin (EZ-Link) and dialysis. To determine binding kinetics, five concentrations of purified ANXA1 protein were prepared with PBST (PBS containing 0.02% Tween-20) and measured from low to high concentrations by NICD-immobilized biosensors to obtain the association and dissociation sensorgram data. For detection of the interaction between protein and small molecular peptides, purified ANXA1 protein was immobilized on SSA sensor (Sartorius) to detect the binding kinetics of NICD peptides, which were diluted in SD buffer (PBST plus 0.1% w v^-1 BSA). The kinetic parameters Kon, Koff and KD were determined using Octct data analysis software.

Data set [1] deals with T2, GST-tagged full-length ANXA1 (Annexin A1) (human, UniProt P04083 1-346).
T2 construct: Annexin A1 (ANXA1), human, full length; In the BLI with peptides it was immobilised on an SSA sensor; also called GST-ANXA1; source: E. coli BL21, purified (GST resin)
T2 sequence (looked up): T1 sequence (P04083 1-346)
Description: BLI; Octet Red96; purified ANXA1 protein immobilised on SSA sensor; NICD peptides diluted in SD buffer (PBST plus 0.1% w/v BSA). The following applies: both partners purified.

The next data set deals with NICD. Description: BLI analysis, ANXA1 proteins to immobilized NICD. In kind it is binding, human. To be noted: for binding affinity with NICD: Figure 2E; for Koff / Kon / Kd: Octet Red96, biotinylated NICD immobilized on SA sensor; for Koff / Kon: ANXA1 protein in PBST; for Kd: five concentrations of ANXA1 protein in PBST (PBS containing 0.02% Tween-20). As for the experimental part:
as §1, §2
(In BLI a coated tip is dipped into the sample, and binding shifts an interference pattern.)

Data set [2] deals with intracellular domain of Notch1 (NICD), protein used in BLI and cross-linking. The experiment in a line: BLI; NICD with full-length ANXA1 or the C-terminal domain of ANXA1 at increasing concentrations; who was immobilised is not told in the main text (scheme in Figure 2D).
The subject of another data set is Notch1. Description: GST-pull down assay of Notch1 from KG1a cell lysate. In kind it is binding, human. To be noted: western blotting, 4°C overnight; Figure S4C. The method, then: For GST-pull down assay, the purified GST fusion proteins were incubated with precleared GST resin (Solarbio) for 5 hours at 4°C. The precipitation was washed four times with PBS and captured the Notch1 protein from prepared cell lysates at 4°C overnight. The complexes were washed four times with PBS before being eluted in SDS-gel loading buffer and detected by western blotting.
Figure S4. GST pull down analysis of the interaction between ANXA1 and Notch1, related to Figure 2. (A) Schematic diagram of GST-tagged fusion protein structure of ANXA1 full-length, C-terminal, and N-terminal domain. (B) Coomassie blue-stained SDS gel image of GST-tagged fusion protein of full-length ANXA1, and N-terminal, and C-terminal domains of ANXA1. (C) Western blotting of Notch1 and ANXA1 expression in complexes pulled-down by GST-ANXA1 in sgANXA1#3 and sgControl cells of KG1a.
Background: Immunoblotting shows a protein as a band on a membrane.

The test system of the next data set is NICD (Δ2,050−2,060). The experiment in a line: BLI analysis of ANXA1 binding NICD (Δ2,050−2,060). Also on record: species or system human. To be noted: Figure S6E. The method, then: as §2
Figure S6. ANXA1 (214−228) and NICD (2,050−2,060) mediate the protein-protein interaction, related to Figure 2J. (A) mRNA expression of ANXA1 detected by qPCR in KG1a-sgANXA1 and HL60-sgANXA1 cells. […] (C) The cell proliferation ability detected by CCK8 assay after 96 hours of culture of KG1a or HL60 cells stably transfected with sgANXA1 or sgControl plasmids. (D) The cell proliferation ability detected by CCK8 assay after 96 hours of culture of KG1a-sgANXA1 and HL60-sgANXA1 cells transiently transfected with ANXA1 (Δ214−228) plasmid. […]

Bridge positions count the residues as written; N and C are the ends. Ends that are not written are not given here. Peptide text beside a SMILES is read from it.

Consider ten molecules from paper PMC11672316, “Identification of ANXA1 as a Novel Upstream Negative Regulator of Notch1 Function in AML” (Advanced Science, 2024).

Turning to `CSCC[C@H](NC(=O)[C@H](CC(=O)O)NC(=O)[C@H](CCCCN)NC(=O)[C@H](CC(N)=O)NC(=O)[C@H](C)NC(=O)CNC(=O)[C@H](CC(N)=O)NC(=O)[C@H](CCCCN)NC(=O)[C@H](CC(C)C)NC(=O)[C@@H]1CSSC[C@H](NC(=O)[C@H](C)NC(=O)[C@H](CO)NC(=O)[C@@H](N)CCCCN)C(=O)N[C@@H](Cc2c[nH]cn2)C(=O)N[C@@H](Cc2c[nH]c3ccccc23)C(=O)N[C@@H](C)C(=O)N[C@@H](C)C(=O)N[C@@H](C)C(=O)N[C@@H](C(C)C)C(=O)N[C@@H](CC(N)=O)C(=O)N[C@@H](CC(N)=O)C(=O)N[C@@H](C(C)C)C(=O)N[C@@H](CC(=O)O)C(=O)N[C@@H](C)C(=O)N[C@@H](C)C(=O)N[C@@H](C(C)C)C(=O)N[C@@H](C(C)C)C(=O)N1)C(=O)N[C@@H](CCC(N)=O)C(=O)N[C@@H](CC(N)=O)C(=O)N[C@@H](CC(N)=O)C(=O)N[C@@H](CCCNC(=N)N)C(=O)O` [NICD-5c] (H-KSACHWAAAVNNVDAAVVCLKNGANKDMQNNR-OH; disulfide 4-19), the Koff at ANXA1 is 1.08×10^-2 1 s^-1.

On to “KSALHWAAAVNNVDAAVVLLKNGANKDMQNNR [NICD-5l]”, for which, on ANXA1 (Figures 2I and S5B), the “binding affinity with GST-ANXA1” value is on record as “increased the binding affinity with GST‐ANXA1 in a dose‐dependent manner”. Also, the Koff on ANXA1 is given as 1.27×10^-2 1 s^-1. The “inhibition of cell proliferation” value is “significantly inhibited the proliferation of KG1a and HL60 cells in a dose‐dependent manner” in the data set with KG1a cells (KG1a, CCK8, 72 h, Figure 2K, means ± s.e.m. of three independent experiments); “significantly inhibited the proliferation of KG1a and HL60 cells in a dose‐dependent manner” with HL60 cells (HL60, CCK8, 72 h, Figure 2K, means ± s.e.m. of three independent experiments).

Turning to RKKRRQRRR [TAT, reference compound], the “cell damage” value in the data set with KG1a cells and with HL60 cells was “barely caused cell damage” each time.

B1: NICD-5l peptide (peptide)
peptide: KSALHWAAAVNNVDAAVVLLKNGANKDMQNNR
notes: also called NICD-5 linear peptide; source: synthetic peptide (solid phase, Wang resin)
Regarding B1, the equilibrium dissociation constant (Kd) in data set [1] stood at 154 µM.

B2: NICD-5c peptide (peptide)
peptide: KSACHWAAAVNNVDAAVVCLKNGANKDMQNNR-OH
modifications: bridge 4-19; also: cyclisation chemistry not given here
notes: also called NICD-5 cyclic peptide; source: synthetic peptide (solid phase, Wang resin)
For B2, in data set [1], the equilibrium dissociation constant (Kd) worked out at 223 µM.

B3: GST-tagged C-terminal domain of ANXA1 (domain or fragment)
chain: PSSDVAALHKAIMVKGVDEATIIDILTKRNNAQRQQIKAAYLQETGKPLDETLKKALTGHLEEVVLALLKTPAQFDADELRAAMKGLGTDEDTLIEILASRTNKEIRDINRVYREELKRDLAKDITSDTSGDFRNALLSLAKGDRSEDFGVNEDLADSDARALYEAGERRKGTDVNVFNTILTTRSYPQLRRVFQKYTKYSKHDMNKVLDLELKGDIEKCLTAIVKCATSKPAFFAEKLHQAMKGVGTRHKALIRIMVSRSEIDMNDIKAFYQKMYGISLCQAILDETKGDYEKILVALCG
As for B3, in the data set on NICD, the “binding affinity with NICD” value was “dose‐dependently increased the binding affinity with NICD”, the Koff is 1.68×10^-2 1 s^-1, the Kon was 3.15×10^3 1 Ms^-1 and the Kd came out at 5.32 µM. The dissociation constant Kd in data set [2] was determined as 5.32 µM.

B4: GST-tagged full-length Annexin A1 (ANXA1) (natural protein)
chain: T1 sequence (P04083 1-346)
As to B4, the equilibrium dissociation constant (Kd) in data set [2] is 18.4 µM.

B5: GST-tagged ANXA1: GST-tagged fusion protein of full-length ANXA1 (protein)
chain: T1 sequence (P04083 1-346)
modifications: left off: GST, end not stated, kept
As for B5, in the data set on Notch1, the “pull-down of Notch1 from cell lysate” value is listed as “Notch1 in the cell lysate could be pulled down by GST‐tagged ANXA1”.

B6: ANXA1: Annexin A1, Ca2+-dependent phospholipid-binding protein (protein)
chain: T1 sequence (P04083 1-346)
modifications: left off: GST, end not stated, kept
With B6, the “interaction with NICD lacking 2050–2060” value in the data set with NICD (Δ2,050−2,060) was “the interaction between NICD and ANXA1 was also lost due to the deletion of 2050–2060 amino acid domain of NICD”.

B7: Full-length ANXA1: purified full-length Annexin A1 protein (protein)
chain: T1 sequence (P04083 1-346)
modifications: left off: GST, end not stated, kept
notes: purified full-length Annexin A1 protein
On to B7, for which, in the data set on NICD, the “binding affinity with NICD” value is reported as “dose‐dependently increased the binding affinity with NICD”, the Koff was 2.88×10^-2 1 s^-1, the Kon is reported as 1.57×10^3 1 Ms^-1 and binding was characterised by a dissociation constant (Kd) of 18.4 µM.

Usually Kd stands for the free concentration of one partner at which half of the binding sites on the other are occupied at equilibrium, for simple one-to-one binding.
